For the test, the target named is AU1-tagged codon-optimised HPV16 E5 mutant M1 (human papillomavirus type 16) (UniProt P06927). The experiment in a line: co-IP; HEK-293T transfected, lysed 20-24 h after transfection in CHAPS buffer (0.2 M NaCl, 50 mM HEPES pH 7.5, 2% CHAPS); immunoprecipitation by the tag of E5 (anti-AU1, anti-HA or anti-GFP), protein G-sepharose, blot with anti-calnexin.

B1: calnexin (natural protein)
chain: HDGHDDDVIDIEDDLDDVIEEVEDSKPDTTAPPSSPKVTYKAPVPTGEVYFADSFDRGTLSGWILSKAKKDDTDDEIAKYDGKWEVEEMKESKLPGDKGLVLMSRAKHHAISAKLNKPFLFDTKPLIVQYEVNFQNGIECGGAYVKLLSKTPELNLDQFHDKTPYTIMFGPDKCGEDYKLHFIFRHKNPKTGIYEEKHAKRPDADLKTYFTDKKTHLYTLILNPDNSFEILVDQSVVNSGNLLNDMTPPVNPSREIEDPEDRKPEDWDERPKIPDPEAVKPDDWDEDAPAKIPDEEATKPEGWLDDEPEYVPDPDAEKPEDWDEDMDGEWEAPQIANPRCESAPGCGVWQRPVIDNPNYKGKWKPPMIDNPSYQGIWKPRKIPNPDFFEDLEPFRMTPFSAIGLELWSMTSDIFFDNFIICADRRIVDDWANDGWGLKKAADGAAEPGVVGQMIEAAEERPWLWVVYILTVALPVFLVILFCCSGKKQTSGMEYKKTDAPQPDVKEEEEEKEEEKDKGDEEEEGEEKLEEKQKSDAEEDGGTVSQEEEDRKPKAEEDEILNRSPRNRKPRRE
In the case of B1, the percent of calnexin co-precipitated, relative to wild type worked out at 50%.

(Values after PMC2164959.)
